Results from patent publication CN113512118A (INST BIOPHYSICS CAS, dated 2021).

Molecular target: T1, sCD146蛋白 (CD146胞外区蛋白, Sino Biological 10115-H08H-20) (human, UniProt P43121 24-559)
T1 construct: extracellular domain; also called 胞外区CD146蛋白
T1 sequence (looked up): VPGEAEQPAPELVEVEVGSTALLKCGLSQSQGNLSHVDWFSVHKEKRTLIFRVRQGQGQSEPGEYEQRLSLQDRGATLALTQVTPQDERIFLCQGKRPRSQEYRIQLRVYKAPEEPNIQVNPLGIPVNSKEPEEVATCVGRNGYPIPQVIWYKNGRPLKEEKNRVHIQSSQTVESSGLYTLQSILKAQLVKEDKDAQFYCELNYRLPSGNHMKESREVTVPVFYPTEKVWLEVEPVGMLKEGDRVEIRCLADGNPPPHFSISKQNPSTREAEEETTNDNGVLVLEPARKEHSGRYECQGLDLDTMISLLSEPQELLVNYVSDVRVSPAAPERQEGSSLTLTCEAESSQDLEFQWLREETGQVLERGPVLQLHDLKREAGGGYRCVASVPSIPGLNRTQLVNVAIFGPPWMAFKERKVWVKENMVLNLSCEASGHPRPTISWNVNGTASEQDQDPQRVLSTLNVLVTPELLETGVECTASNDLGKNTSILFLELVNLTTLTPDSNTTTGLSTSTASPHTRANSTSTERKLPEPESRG
Experiment: BLI (Octet Red96), antibody on Anti-Mouse Fc Capture sensor, sCD146 at 250-3.91 nM

Kd: 1.12 nM
B1: AA98抗体 (mouse monoclonal anti-CD146 antibody AA98) (antibody, mouse IgG2a, kappa, V domains shown)
VH: EVQLLESGAELVRPGASVKLSCKTSGYIFTNYWIHWVKNRSGNGLEWIARIYPGTDITYYNEKFKGKATLTVDKSSSSAYMLLSSLKSEDSSVYFCARSGGYWYFDVWGAGTTVTVSS
VL: ELVMTQSPASLAVSLGQRATISCRASKSVSISGYSYMHWYQQKPGQPPKLLIYLASNLESGVPARFSGSGSGTDFTLNIHPVEEEDAATYYCQHSRELPYTFGGGTKLEIKR
notes: also called 母本AA98抗体; 亲本AA98抗体
